First the molecules themselves.
B1: hu9F5VHv9/hu9F5VLv8 (antibody, V domains shown)
VH: EVQLVQSGAEVKKPGATVKISCKASGFNIKDDYMNWVQQRPGKGLEWIGWIDPENGDTEYASKFQGRATMTADTSTNTAYMELSSLRSEDTAVYYCTTSNGWGQGTLVTVSS
VL: DIVMTQSPFSLPVTPGESASISCRSSKSLLHSNGITYLYWYLQKPGQSPQLLIYQMSNLASGVPNRFSSSGSGTDFTLKISRVEAEDVGVYYCAQNLELPLTFGQGTKLEIK
B2: hu9F5VHv9/hu9F5VLv8_DIM2 (antibody, V domains shown)
VH: EVQLVQSGAEVKKPGATVKISCKASGFNIKDDYMNWVQQRPGKGLEWIGWIDPENGDTEYASKFQGRATMTADTSTNTAYMELSSLRSEDTAVYYCTTSNGWGQGTLVTVSS
VL: DIQMTQSPFSLPVTPGESASISCRSSKSLSHSNGITYLYWYQQKPGQSPQLLIYQGSNRASGVPNRFSSSGSGTDFTLKISRVEAEDVGVYYCAQNIELPLTFGQGTKLEIK
B3: hu9F5VHv9/hu9F5VLv8_DIM6 (antibody, V domains shown)
VH: EVQLVQSGAEVKKPGATVKISCKASGFNIKDDYMNWVQQRPGKGLEWIGWIDPENGDTEYASKFQGRATMTADTSTNTAYMELSSLRSEDTAVYYCTTSNGWGQGTLVTVSS
VL: DIQMTQSPFSLPVTPGESASISCRSSKSLDHSNGITYLYWYQQKPGQSPQLLIYQGSNRASGVPNRFSSSGSGTDFTLKISRVEAEDVGVYYCAQNIELPLTFGQGTKLEIK
B4: hu9F5VHv9/hu9F5VLv8_DIM3 (antibody, V domains shown)
VH: EVQLVQSGAEVKKPGATVKISCKASGFNIKDDYMNWVQQRPGKGLEWIGWIDPENGDTEYASKFQGRATMTADTSTNTAYMELSSLRSEDTAVYYCTTSNGWGQGTLVTVSS
VL: DIQMTQSPFSLPVTPGESASISCRSSKSLSHSNGITYLYWYQQKPGQSPQLLIYQGSNTASGVPNRFSSSGSGTDFTLKISRVEAEDVGVYYCAQNIELPLTFGQGTKLEIK
B5: hu9F5VHv9/hu9F5VLv8_DIM4 (antibody, V domains shown)
VH: EVQLVQSGAEVKKPGATVKISCKASGFNIKDDYMNWVQQRPGKGLEWIGWIDPENGDTEYASKFQGRATMTADTSTNTAYMELSSLRSEDTAVYYCTTSNGWGQGTLVTVSS
VL: DIQMTQSPFSLPVTPGESASISCRSSKSLSHSNGITYLYWYQQKPGQSPQLLIYQGSNRASGVPNRFSSSGSGTDFTLKISRVEAEDVGVYYCAQNGELPLTFGQGTKLEIK
B6: hu9F5VHv9/hu9F5VLv8_DIM5 (antibody, V domains shown)
VH: EVQLVQSGAEVKKPGATVKISCKASGFNIKDDYMNWVQQRPGKGLEWIGWIDPENGDTEYASKFQGRATMTADTSTNTAYMELSSLRSEDTAVYYCTTSNGWGQGTLVTVSS
VL: DIQMTQSPFSLPVTPGESASISCRSSKSLGHSNGITYLYWYQQKPGQSPQLLIYQGSNRASGVPNRFSSSGSGTDFTLKISRVEAEDVGVYYCAQNIELPLTFGQGTKLEIK
B7: hu9F5VHv9/hu9F5VLv8_DIM1 (antibody, V domains shown)
VH: EVQLVQSGAEVKKPGATVKISCKASGFNIKDDYMNWVQQRPGKGLEWIGWIDPENGDTEYASKFQGRATMTADTSTNTAYMELSSLRSEDTAVYYCTTSNGWGQGTLVTVSS
VL: DIQMTQSPFSLPVTPGESASISCRSSKSLSHSNGITYLYWYQQKPGQSPQLLIYQGSNGASGVPNRFSSSGSGTDFTLKISRVEAEDVGVYYCAQNIELPLTFGQGTKLEIK

The Kd is a measure of binding affinity in units of concentration. In general, koff refers to a measure of how fast the partners let go of each other. For orientation: kon means the second-order rate constant of association.

The assay deals with T1, recombinant human 4R0N tau (human, UniProt P10636 2-758).
T1 construct: also called recombinant 4R0N human tau; P10636-6
T1 sequence (P10636 other isoform, or with tags, fused parts or gaps limits assumed): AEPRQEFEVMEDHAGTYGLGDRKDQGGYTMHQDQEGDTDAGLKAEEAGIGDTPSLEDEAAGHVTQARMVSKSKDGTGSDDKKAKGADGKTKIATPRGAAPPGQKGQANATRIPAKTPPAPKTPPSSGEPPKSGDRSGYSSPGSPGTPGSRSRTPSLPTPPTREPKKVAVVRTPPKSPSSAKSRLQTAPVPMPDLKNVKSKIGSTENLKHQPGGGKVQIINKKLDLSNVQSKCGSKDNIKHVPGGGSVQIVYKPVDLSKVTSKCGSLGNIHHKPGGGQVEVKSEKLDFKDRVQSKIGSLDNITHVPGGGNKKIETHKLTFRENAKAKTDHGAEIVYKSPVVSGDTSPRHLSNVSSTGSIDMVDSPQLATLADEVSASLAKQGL
The assay can be described thus: SPR Biacore T200; antibody captured by anti-human Fc; tau as analyte; global 1:1 fit. The protocol:
Target binding analysis was performed using a Biacore T200 to compare the binding affinity of humanized 9F5 variants to recombinant human 4R0N tau. Anti-Human Fc antibody was immobilized on sensor chip CM3 via amine coupling, and humanized 9F5 variants were captured to equivalent levels. Various concentrations of recombinant 4R0N human tau (ranging from 0.02 nM to 12.5 nM) were passed over the captured ligand at 50 μL/min in running buffer (HBS+0.05% P-20, 1 mg/mL BSA) for 180 seconds association/420 seconds dissociation as a single cycle. Data was blank subtracted to both an irrelevant sensor not containing antibody and 0 nM analyte concentration. Analysis was performed using a global 1:1 fit with Biacore Evaluation software.
On the technique in general: Surface plasmon resonance follows binding to a sensor surface in real time, without labels.
Take B1: the Kd was 0.269 nM, the koff was found to be 0.000429 s⁻¹ and the kon worked out at 1.72e+06 M⁻¹ s⁻¹.

In the case of B2, the Kd came to 0.299 nM, the koff worked out at 0.000586 s⁻¹ and the kon stood at 1.96e+06 M⁻¹ s⁻¹.

In the case of B3, the Kd was determined as 0.178 nM, the koff was found to be 0.000272 s⁻¹ and the kon was 1.53e+06 M⁻¹ s⁻¹.

For B4, the Kd was 0.6 nM, the koff amounted to 0.00068 s⁻¹ and the on-rate (kon) came to 1.13e+06 M⁻¹ s⁻¹.

Consider B5, for which the Kd was found to be 2.63 nM, the koff was 0.00143 s⁻¹ and the kon is 542000 M⁻¹ s⁻¹.

B6: the Kd was determined as 0.169 nM, the koff was 0.000295 s⁻¹ and the kon was found to be 1.75e+06 M⁻¹ s⁻¹.

For the molecule B7, the Kd worked out at 0.844 nM, the koff turned out to be 0.00559 s⁻¹ and the kon was determined as 6.62e+06 M⁻¹ s⁻¹.

(Values after patent publication US20220275067A1 (PROTHENA BIOSCIENCES, published 2022).)
